Laboratory results taken from patent US20240109974A1 (SHANDONG SIMCERE BIOPHARMACEUTICAL, published 2024).
Positions count from the first letter of the chain named.

B1: 224-Hu6 (antibody, V domains shown)
VH: QVQLVQSGAEVKKPGASVKVSCKASGFNNKDIYMHWVRQAPGQGLEWIGRIDPATGNTKHDPKFQDRVTMTSDTSTNTVYMELSSLRSEDTAVYYCARSPYGDFGAMDYWGQGTLVTVSS
VL: DIQMTQSPSSLSASVGDRVTITCTASSSVSSNYLHWYQQKPGSSPKLWIYSTSNLPSGVPSRFSGSGSGTDFTLTISSLQPEDFATYYCHQYHRSPWTFGQGTKVEIK
notes: Humanized form of #224; also called VH8 + VL7
B2: 224-Hu7 (antibody, V domains shown)
VH: QVQLVQSGSELKKPGASVKVSCKASGFNNKDIYMHWVRQAPGQGLEWMGRIDPATGNTKHDPKFQDKAVLSSDTSVSTAYLQISSLKAEDTAVYYCARSPYGDFGAMDYWGQGTLVTVSS
VL: B1 VL with S43K, S44A, W48L
notes: Humanized form of #224; also called VH9 + VL10
B3: 224-Hu5 (antibody, V domains shown)
VH: B2 VH
VL: B1 VL with S43K, S44A, W48L, F72Y, T73S
notes: Humanized form of #224; also called VH9 + VL9
B4: 224-Hu2 (antibody, V domains shown)
VH: B2 VH
VL: B1 VL
notes: Humanized form of #224; also called VH9 + VL7
B5: 224-Hu3 (antibody, V domains shown)
VH: B2 VH
VL: B1 VL with S43K, S44A, W48L, P81A, F84A
notes: Humanized form of #224; also called VH9 + VL8
B6: 224-Hu4 (antibody, V domains shown)
VH: B2 VH
VL: B1 VL with S43K, S44A
notes: Humanized form of #224; also called VH9 + VL6

Legend:
[1] = target: T1, human TNFR2 on the surface of CHO-TNFR2 cells (human, UniProt P20333 23-461); assay: competition flow cytometry on CHO-TNFR2 cells, competitor TNFα-biotin; area under the MFI curve; design: unit not given beside the values
T1 construct: whole, on cells
T1 sequence (looked up): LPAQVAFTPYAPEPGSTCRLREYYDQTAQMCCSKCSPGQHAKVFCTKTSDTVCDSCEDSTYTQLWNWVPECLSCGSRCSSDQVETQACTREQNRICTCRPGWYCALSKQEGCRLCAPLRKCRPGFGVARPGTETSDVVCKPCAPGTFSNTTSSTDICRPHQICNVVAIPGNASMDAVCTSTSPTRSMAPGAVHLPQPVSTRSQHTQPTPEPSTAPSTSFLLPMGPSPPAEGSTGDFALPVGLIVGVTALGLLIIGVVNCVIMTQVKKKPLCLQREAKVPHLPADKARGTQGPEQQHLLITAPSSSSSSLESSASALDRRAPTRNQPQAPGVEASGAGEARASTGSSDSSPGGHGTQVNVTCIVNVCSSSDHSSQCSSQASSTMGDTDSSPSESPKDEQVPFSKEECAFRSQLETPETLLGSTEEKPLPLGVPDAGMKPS
Method: CHO stable cells highly expressing human TNFR2 were used for the experiment (the same as CHO-TNFR2 in Example 4). The CHO-TNFR2 cells were digested, washed twice with DPBS, then stained with Live/Dead (L/D) (20 minutes at room temperature), and plated at a density of 1×10⁵ cells/50 μl/well. A test anti-TNFR2 antibody was diluted to 6 μg/ml with a staining buffer as the starting concentration: the antibody was subjected to 3.33-fold gradient dilution, with a total of 7 concentration points. The diluted antibody was added to the plated cells at 50 μl/well, and the mixture was mixed well by gentle pipetting, and incubated at 4° C. for 30 minutes. Then the diluted 100 ng/ml of human TNFα-biotin was added at 100 μl/well, and the mixture was mixed well by gentle pipetting, and then incubated at 4° C. for 30 minutes. The mixture was washed twice with a staining buffer, and then 0.12 μg/ml PE-streptavidin (BioLegend, Cat #405204) was added at 100 μl/well; the resulting mixture was incubated at 4° C. for 30 minutes. The mixture was washed twice with a staining buffer, and then 150 μl of staining buffer was added to resuspend the cells; signals were detected by a flow cytometer (Thermo Attune NxT). The inhibitory curve of an antibody was drawn with antibody concentration as the abscissa and corresponding MFI value as the ordinate, and fitted with four parameters (GraphPad Prism9) to calculate the IC50 value. The smaller the IC50 value, the stronger the ability of an antibody to inhibit the binding of human TNFα to human TNFR2. The blocking effect of a humanized antibody was normalized to its corresponding human-murine chimeric WT antibody. The higher the percentage value, the better the inhibitory effect of the humanized antibody.

[2] = target: T1, human TNFR2 on the surface of CHO-TNFR2 …; assay: flow cytometry on CHO-TNFR2 cells; area under the MFI fold curve
Method: The transfected full-length plasmid of human TNFR2 was purchased from Sino Biological (Cat #HG10417-UT, NCBI Ref Seq: NM_001066.2). The experiment was conducted at a cell density within 80%. The cell medium was discarded; the cells were rinsed with PBS, and digested with 1 ml trypsin for 2 minutes; the digestion was stopped with a Ham's F12 complete medium containing 10% FBS, and then a cell suspension was made. The cell suspension was counted, and then an appropriate amount of cell suspension was centrifuged at 350×g; the supernatant was discarded; a corresponding volume of blocking solution (10% FBS+PBS) at a density of 1×10⁷ cells/ml was added to resuspend the cells, and the mixture was incubated at 4° C. for 30 minutes. After the incubation, the mixture was centrifuged at 350×g to remove the supernatant, and the cells were resuspended in a staining buffer (2% FBS+PBS) to a density of 2×10⁶ cells/ml, and spread onto a 96-well plate, with 50 μl of cell suspension added to each well for later use. The antibody was diluted with PBS for 10-fold gradient dilution from the highest concentration of 20 μg/m (twice the concentration); the diluted antibody was added to the well containing 50 μl of cell suspension, and placed on a microplate shaker for shaking at 500 rpm for 1 minute, so that the antibody was fully mixed with the cells; the mixture was incubated at 4° C. for 1 h. After the incubation, the cells were washed twice with the staining buffer, with 100 μl per well, and centrifuged at 350-g for 5 minutes, and the supernatant was discarded. The PE goat anti-Human IgG Fc antibody (ebioscience, Cat #12-4998-82) was diluted 250-fold with the staining buffer, with a volume of 100 μl per well added to the washed cell wells; the mixture was mixed evenly, and stained at 4° C. for 30 minutes. After the staining, similarly, the cells were washed twice with the staining buffer; finally, the cells were resuspended in 200 μl of staining buffer; signals were detected by a flow cytometer (Thermo Attune NxT). The stronger the signal, the stronger the binding ability of an antibody to TNFR2. The binding curve of an antibody was drawn with antibody concentration as the abscissa and corresponding mean fluorescence intensity (MFI) fold as the ordinate, and fitted with four parameters (GraphPad Prism9) to calculate the EC50 value.

Row | Binder | AUC [1] | AUC [2]
1 | B1 | 13900 | 603
2 | B2 | 19600 | 608
3 | B3 | 14600 | 593
4 | B4 | 19200 | 672
5 | B5 | 18700 | 675
6 | B6 | 14200 | 621
